This passage reports Kd results from patent publication US5840530, “DNA encoding receptors for the beta-2 chain of human IL-12” (Hoffmann-La Roche Inc., dated 1998).

Assay [1] deals with T1, human IL-12 receptor beta1 and beta2 coexpressed on COS cells (cotransfection of the pEF-BOS beta1 plasmid … (human)). Description: equilibrium binding of 125I-labeled IL-12 to COS cells cotransfected with beta1 and beta2 plasmids, Scatchard analysis, low affinity site. The method, then: (§1) Recombinant human IL-12 was labeled with ^125I as follows. Iodogen was dissolved in chloroform. 0.05 mg aliquots of Iodogen were dried in 12×150 mm borosilicate glass tubes. For radiolabeling, 1.0 mCi Na[^125I] was added to the Iodogen-coated borosilicate glass tube, which also contained 0.05 ml of Tris-iodination buffer (25 mM Tris-HCL pH 7.5, 0.4M NaCl and 1 mM EDTA) to form a ^125I solution. The ^125I solution was activated by incubating for 6 minutes at room temperature. The activated ^125I solution was transferred to a tube containing 0.05 to 0.1 ml recombinant human IL-12 (31.5 µg) in Tris-iodination buffer. The resulting mixture of the activated ^125I solution and the recombinant human IL-12 was incubated for 6 minutes at room temperature. At the end of the incubation, 0.05 ml of Iodogen stop buffer (10 mg/ml tyrosine, 10% glycerol in Dulbecco's phosphate buffered saline (PBS), pH 7.40) was added and reacted for 3 minutes. The resulting mixture was then diluted with 1.0 ml Tris-iodination buffer containing 0.25% bovine serum albumin (BSA), and applied to a Bio-Gel P10DG desalting column for chromatography. The column was eluted with Tris-iodination buffer containing 0.25% BSA. […] The TCA precipitable radioactivity (10% TCA final concentration) was typically in excess of 95% of the total radioactivity. […]

Assay [2] deals with T1, human IL-12 receptor beta1 and beta2 …. Description: equilibrium binding of 125I-labeled IL-12 to COS cells cotransfected with beta1 and beta2 plasmids, Scatchard analysis, high affinity site. The method, then:
as §1

B1: recombinant human IL-12 (Interleukin-12) (ligand)
chain 1: IWELKKDVYVVELDWYPDAPGEMVVLTCDTPEEDGITWTLDQSSEVLGSGKTLTIQVKEFGDAGQYTCHKGGEVLSHSLLLLHKKEDGIWSTDILKDQKEPKNKTFLRCEAKNYSGRFTCWWLTTISTDLTFSVKSSRGSSDPQGVTCGAATLSAERVRGDNKEYEYSVECQEDSACPAAEESLPIEVMVDAVHKLKYENYTSSFFIRDIIKPDPPKNLQLKPLKNSRQVEVSWEYPDTWSTPHSYFSLTFCVQVQGKSKREKKDRVFTDKTSATVICRKNASISVRAQDRYYSSSWSEWASVPCS
chain 2: RNLPVATPDPGMFPCLHHSQNLLRAVSNMLQKARQTLEFYPCTSEEIDHEDITKDKTSTVEACLPLELTKNESCLNSRETSFITNGSCLASRKTSFMMALCLSSIYEDLKMYQVEFKTMNAKLLMDPKRQIFLDQNMLAVIDELMQALNFNSETVPQKSSLEEPDFYKTKIKLCILLHAFRIRAVTIDRVMSYLNAS
As usually defined, the Kd is the constant that tells how readily two partners part at equilibrium. Turning to B1, the Kd amounted to 5 nM in assay [1] and 0.05 nM in assay [2].
